In the supplement of paper PMC9112550, “Optimization of the antimicrobial peptide Bac7 by deep mutational scanning” (BMC Biology, 2022):

Tested on: Escherichia coli TOP10
Assay: shrunken log2 fold change of peptide-encoding DNA abundance (4.5 h post-induction vs induction); higher = less antimicrobial activity (less host growth inhibition)
Conditions: time post-induction: 4.5 h; library: site-saturation at positions 5, 18, 19, 20
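Further: peptides expressed intracellularly from a pBAD plasmid library in pooled LB shake-flask culture, induced with 0.3% L-arabinose, DNA abundance read by NGS, three biological replicates, DESeq2 with apeglm shrinkage.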

Row | Sequence | shrunken log2 fold change
1 | RRIRRRPPRLPRPRPRPGPDPRP | 0.518
2 | RRIRARPPRLPRPRPRPLICPRP | 0.341
3 | RRIRGRPPRLPRPRPRPAFVPRP | 0.373
4 | RRIRKRPPRLPRPRPRPWPFPRP | 0.0352
5 | RRIRARPPRLPRPRPRPYCMPRP | -0.495
6 | RRIRYRPPRLPRPRPRPPDWPRP | 0.299
7 | RRIRTRPPRLPRPRPRPLWMPRP | -0.119
8 | RRIRVRPPRLPRPRPRPFSHPRP | -0.358
9 | RRIRMRPPRLPRPRPRPWKFPRP | 0.0673
10 | RRIRERPPRLPRPRPRPVPNPRP | -0.14
11 | RRIRNRPPRLPRPRPRPTRKPRP | 0.623
12 | RRIRVRPPRLPRPRPRPGWDPRP | 0.243
13 | RRIRCRPPRLPRPRPRPMPRPRP | 0.0702
14 | RRIRARPPRLPRPRPRPHEKPRP | 0.358
15 | RRIRSRPPRLPRPRPRPIARPRP | 0.029
16 | RRIRYRPPRLPRPRPRPWKHPRP | -0.0695
17 | RRIRWRPPRLPRPRPRPTFEPRP | 0.13
18 | RRIRVRPPRLPRPRPRPQYHPRP | -0.648
19 | RRIRIRPPRLPRPRPRPADSPRP | -0.325
20 | RRIRCRPPRLPRPRPRPYSRPRP | -0.0442
21 | RRIRPRPPRLPRPRPRPPTNPRP | 0.222

Row | Sequence | shrunken log2 fold change
22 | RRIRARPPRLPRPRPRPYIAPRP | -0.438
23 | RRIRSRPPRLPRPRPRPVIVPRP | -0.191
24 | RRIRYRPPRLPRPRPRPMDHPRP | -0.237
25 | RRIRLRPPRLPRPRPRPPHKPRP | -0.113
26 | RRIRPRPPRLPRPRPRPVHTPRP | -0.036
27 | RRIRIRPPRLPRPRPRPSADPRP | -0.235
28 | RRIRERPPRLPRPRPRPHLNPRP | -0.434
29 | RRIRRRPPRLPRPRPRPPDCPRP | 0.326
30 | RRIRVRPPRLPRPRPRPYKCPRP | -0.0495
31 | RRIRCRPPRLPRPRPRPGSFPRP | -0.22
32 | RRIRGRPPRLPRPRPRPDWNPRP | 0.361
33 | RRIRWRPPRLPRPRPRPSECPRP | 0.0183
34 | RRIRWRPPRLPRPRPRPLREPRP | 0.125
35 | RRIRWRPPRLPRPRPRPEQTPRP | -0.0026
36 | RRIRPRPPRLPRPRPRPGWEPRP | 0.462
37 | RRIRRRPPRLPRPRPRPMWEPRP | 0.00178
38 | RRIRWRPPRLPRPRPRPNPWPRP | 0.265
39 | RRIRIRPPRLPRPRPRPPENPRP | 0.0392
40 | RRIRRRPPRLPRPRPRPTMRPRP | 0.667
41 | RRIRCRPPRLPRPRPRPDILPRP | -0.0877
42 | RRIRQRPPRLPRPRPRPDQNPRP | -0.377

Row | Sequence | shrunken log2 fold change
43 | RRIRTRPPRLPRPRPRPYRDPRP | -0.383
44 | RRIRWRPPRLPRPRPRPCGYPRP | 0.14
45 | RRIRDRPPRLPRPRPRPHNWPRP | -0.144
46 | RRIRHRPPRLPRPRPRPIRQPRP | 0.0104
47 | RRIRQRPPRLPRPRPRPRIWPRP | 0.123
48 | RRIRHRPPRLPRPRPRPAAYPRP | -0.206
49 | RRIRFRPPRLPRPRPRPHRWPRP | -0.17
50 | RRIRTRPPRLPRPRPRPDHVPRP | -0.0634
51 | RRIRSRPPRLPRPRPRPGTDPRP | -0.0659
52 | RRIRWRPPRLPRPRPRPTASPRP | 0.977
53 | RRIRNRPPRLPRPRPRPGSDPRP | -0.0348
54 | RRIRLRPPRLPRPRPRPKEDPRP | -0.184
55 | RRIRRRPPRLPRPRPRPLWCPRP | 0.186
56 | RRIRMRPPRLPRPRPRPQPPPRP | 1.18
57 | RRIRRRPPRLPRPRPRPPPWPRP | 0.868
58 | RRIRCRPPRLPRPRPRPWSLPRP | -1.5
59 | RRIRGRPPRLPRPRPRPWQLPRP | 0.372
60 | RRIRFRPPRLPRPRPRPVQEPRP | 0.0623
61 | RRIRTRPPRLPRPRPRPTKLPRP | -0.0813
62 | RRIRHRPPRLPRPRPRPGMSPRP | -0.0653
63 | RRIRRRPPRLPRPRPRPVQTPRP | 0.178
